Reference: patent US20180256699A1 (University of Texas, published 2018)
Like-named read-outs stand apart in the source and are kept apart here.

Legend:
[1] = molecular target: T1, Bordetella adenylate cyclase toxin (ACT), full-length, acylated (Bordetella pertussis, UniProt J7QLC0 1-1706); experiment: cell-based or functional assay
[2] = molecular target: T2, RTX751, RTX domain of ACT, residues 751-1706, non-acylated (Bordetella pertussis, UniProt J7QLC0 751-1706); experiment: method and antibody format not stated
T2 construct: Expressed without CyaC

[3] = molecular target: RTX985, RTX domain of ACT, residues 985-1706 (Bordetella pertussis, UniProt J7QLC0 985-1706)
[4] = molecular target: T2, RTX751, RTX domain of ACT, residues …
[5] = molecular target: T3, Bpp-RTX751 (Bordetella parapertussis); experiment: ELISA: Bpp-RTX751 coated, M2B10 IgG titrated
T3 construct: fragment

[6] = molecular target: T4, HP1096*, hydrophobic domain of ACT, residues 399-1096, MBP fusion, acylated (Bordetella pertussis, UniProt J7QLC0 399-1096); experiment: ELISA: HP1096* coated equimolar with ACT, M2B10 IgG titrated from 1 nM, detected with anti-human Fc-HRP
[7] = molecular target: T1, Bordetella adenylate cyclase toxin …; experiment: ELISA: ACT coated, M2B10 IgG titrated from 1 nM, detected with anti-human Fc-HRP
[8] = molecular target: T2, RTX751, RTX domain of ACT, residues …; experiment: ELISA: Bp-RTX751 coated, M2B10 IgG titrated
[9] = molecular target: T5, CAT400, catalytic domain of ACT, residues 1-400 (Bordetella pertussis, UniProt J7QLC0 1-400); experiment: ELISA: CAT400 coated equimolar with ACT, M2B10 IgG titrated from 1 nM, detected with anti-human Fc-HRP
[10] = molecular target: T6, Br-RTX751 (Bordetella bronchiseptica); experiment: ELISA: Br-RTX751 coated, M2B10 IgG titrated
T6 construct: fragment

[11] = molecular target: T4, HP1096*, hydrophobic domain of ACT, …; experiment: ELISA: HP1096* coated equimolar with ACT, M1H5 IgG titrated from 1 nM, detected with anti-human Fc-HRP
[12] = molecular target: T5, CAT400, catalytic domain of ACT, …; experiment: ELISA: CAT400 coated equimolar with ACT, M1H5 IgG titrated from 1 nM, detected with anti-human Fc-HRP

B1: M1E2 single-chain antibody fragment (scAb) (scFv, not shown: a dimerising Fc or GST)
scFv: DIVMTQSPAIMSASLGERVTMTCTASSSVSSSYLHWYQQKPGSSPKLWIYSTSNLASGVPARFSGSGSGTSYSLTISSMEAEDAATYYCHQYHRSPPTFGGGTKLEIKRGGGGGGSGGGGSGGGGSGGGGSQVQLKQSGAELVRPGTSVKVSCKASGYAFTNYLIEWVKQRPGQGLEWIGVINPGIGNTNYNEKFKGKATLTADKSSSTVYMQLSSLTSDDSAVYFCARGLNYGSSQHWYFDVWGAGTTVTVSS
In the case of B1, the “reduction of intracellular cAMP level in J774A.1 cells, scAb at 160-fold molar excess over ACT” value (“reduction … at 160-fold molar excess over ACT” for short) [1] is reported as > 90%.

B2: M1H1 single-chain antibody fragment (scAb) (scFv, not shown: a dimerising Fc or GST)
scFv: DIVMTQSPAIMSASLGERVTMTCTASSSVSSSYLHWYQQKPGSSPKLWIYSTSNLASGVPARFSGSGSGTSYSLTISSMEAEDAATYYCHQYHRSPPTFGGGTKLELKRGGGGGGSGGGGSGGGGSGGGGSQVQLQQSGAELVRPGTSVKVSCKASGYAFTNYLIEWVKQRPGQGLEWIGVINPGIGNTNYNEKFKGKATLTADKFSSTASMQLSSLTSDDSAVYFCARGLNYGSSQHWYFDVWGAGTSVTVSS
For B2, the “reduction … at 160-fold molar excess over ACT” value [1] was > 90%.

B3: M2B10 single-chain antibody fragment (scAb) (scFv)
scFv: DIVMTQSPAILSASLGERVTMTCTASSSVSSSYLHWYQQKPGSSPKLWIYSTSNLASGVPARFSGSGSGTSYSLTISSMEAEDAATYYCHQYHRSPPTFGAGTKLEIKRGGGGGGSGGGGSGGGGSGGGGSEVQLQQSGAELVRPGTSVKVSCKASGYAFTNYLIEWVKQRPGQGLEWIGVINPGIGNTNYNEKFKGKATLTADKSSSTVYMQLSSLTSDDSAVYFCARGLNYGSSQHWYFDVWGAGTSVTVSS
B3 was tested, and the “reduction … at 160-fold molar excess over ACT” value [1] was > 90%.

B4: M2B10 antibody (format not stated) (antibody, V domains shown)
VH: EVQLQQSGAELVRPGTSVKVSCKASGYAFTNYLIEWVKQRPGQGLEWIGVINPGIGNTNYNEKFKGKATLTADKSSSTVYMQLSSLTSDDSAVYFCARGLNYGSSQHWYFDVWGAGTSVTVSS
VL: DIVMTQSPAILSASLGERVTMTCTASSSVSSSYLHWYQQKPGSSPKLWIYSTSNLASGVPARFSGSGSGTSYSLTISSMEAEDAATYYCHQYHRSPPTFGAGTKLEIKR
B4 was tested, and the “IC50, J774A.1 macrophage cell line intoxication assay with 125 ng/mL ACT (0.7 nM)” value [1] was 6 nM and the Kd [2] was ~1.2 nM.

B5: M2C2 antibody (format not stated) (antibody, V domains shown)
VH: QVQLQQSGPELGKPGASVKISCKASGYLFTGYNIYWVKQSHRKSLEWIGYINPYNGDTSYNQKSKGKATLTVDRSSSTAYMHLNSLTSEDSAIYFCARGYYVRPLDYWGQGTTLTVSS
VL: DIVLTQSPAIMSASLGERVTMTCTASSSVSSSYLHWYQQKPGSSPKLWIYSTSNLASGVPARFSGSGSGTSYSLTISSMEAEDAATYYCHQYHRSPPTFGGGTKLEIKR
With B5 the “IC50, J774A.1 macrophage cell line intoxication assay with 125 ng/mL ACT (0.7 nM)” value [1] was 8.1 nM and the Kd [2] was ~1.5 nM.

B6: M2B10 chimeric IgG1/κ antibody (antibody, V domains shown)
VH: EVQLQQSGAELVRPGTSVKVSCKASGYAFTNYLIEWVKQRPGQGLEWIGVINPGIGNTNYNEKFKGKATLTADKSSSTVYMQLSSLTSDDSAVYFCARGLNYGSSQHWYFDVWGAGTSVTVSS
VL: DIVMTQSPAILSASLGERVTMTCTASSSVSSSYLHWYQQKPGSSPKLWIYSTSNLASGVPARFSGSGSGTSYSLTISSMEAEDAATYYCHQYHRSPPTFGAGTKLEIKR
notes: also called M2B10 IgG; not shown: human IgG1 constant domains (IgG-Abvec vector); human kappa constant domain (Igκ-Abvec vector)
With B6 the “EC50 (read off the curve)” value [3] was ~0.04 nM, the “EC50 (read off the curve)” value [4] was ~0.04 nM and the “EC50 (read off the curve)” value [5] was ~0.05 nM. For the same binder, the binding result [6] was “no binding (tested: 1 nM)”, the “EC50 (read off the curve)” value [7] was ~0.04 nM and the “EC50 (read off the curve)” value [8] was ~0.05 nM. For the same binder, the binding result [9] was “no binding (tested: 1 nM)” and the “EC50 (read off the curve)” value [10] was ~0.05 nM.

B7: M2C2 single-chain antibody fragment (scAb) (scFv, not shown: a dimerising Fc or GST)
scFv: DIVLTQSPAIMSASLGERVTMTCTASSSVSSSYLHWYQQKPGSSPKLWIYSTSNLASGVPARFSGSGSGTSYSLTISSMEAEDAATYYCHQYHRSPPTFGGGTKLEIKRGGGGGGSGGGGSGGGGSGGGGSQVQLQQSGPELGKPGASVKISCKASGYLFTGYNIYWVKQSHRKSLEWIGYINPYNGDTSYNQKSKGKATLTVDRSSSTAYMHLNSLTSEDSAIYFCARGYYVRPLDYWGQGTTLTVSS
For B7, the “reduction … at 160-fold molar excess over ACT” value [1] was > 90%.

B8: M1H5 chimeric IgG1/κ antibody (antibody, V domains shown)
VH: EVNLVESGGDLVKPGGSLKLSCAASGFTFSSYGMSWVRQTPDKRLEWVATISSGGTYTYYPDSVKGRFTISRDNAKNTLYLQMSSLKSEDTAMYYCAREIMRGGGYYFDYWSQGTTLTVSS
VL: DIQMIQSTSSLSASLGDRVTISCRASQDISNYLNWYQQKPDGTVKLLIYYTSRLHSGVPSRFSGSGSGTDYSLTISNLEQEDIATYFCQQGNTLPYTFGGGTKLEIKR
notes: also called M1H5 IgG; not shown: human IgG1 constant domains (IgG-Abvec vector); human kappa constant domain (Igκ-Abvec vector)
B8: no binding (tested: 1 nM) [11]; no binding (tested: 1 nM) [12].

B9: M1F10 single-chain antibody fragment (scAb) (scFv, not shown: a dimerising Fc or GST)
scFv: DIVMTQSPASLAVSLGQRATISCRASESVGNYGISFTNWYQQKPGQPPKLLIYAASNLESGIPARFSGSGSGTDFTLNIHPVEEEDAATYYCQQSNEDPYTFGGGTKLEIKRGGGGGGSGGGGSGGGGSGGGGSEVKLVESGGDLVKPGGSLKLSCAASGFTFSSYGMSWVRQTPDKRLEWVATISSGGTYTYYPDSVKGRFTISRDNAKNTLYLQMSSLKSEDTAMYYCAREIMRGGGYYFDYWGQGTTLTVSS
B9 was tested, and the “reduction … at 160-fold molar excess over ACT” value [1] was > 90%.
